Values belong to the binder of their own block, whether it stands above or below them.
What was measured:
mtSSB = target: T1, mtSSB (human, UniProt Q04837 17-148); assay: EMSA; 10 mM Mg acetate; full shift at less than half the amount needed for RPA; super-shifted bands = multiple SSBs bound; EMSA: 50 mM K acetate, 20 mM Tris-acetate pH 7.9, 10 mM Mg acetate, 1 mM DTT, 60 nM FAM-ssDNA, 60 min at room temperature; 5% native PAGE in 0.5x TBE; settings: protein: recombinant; chain copies: 4; label: 5'-FAM (fluorescein); single strand
T1 sequence: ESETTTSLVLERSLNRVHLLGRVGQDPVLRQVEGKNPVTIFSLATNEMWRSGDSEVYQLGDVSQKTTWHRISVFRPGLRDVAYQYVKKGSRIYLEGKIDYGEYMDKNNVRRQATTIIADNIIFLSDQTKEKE

[1] = target: RPA (replication protein A) (human, UniProt P27694;P15927;P35244 1-616;1-270;1-121); assay: EMSA; 10 mM Mg acetate; SSB/oligo 0-16; more than twice as much RPA as mtSSB needed to fully shift; super-shifted bands = multiple SSBs bound; EMSA: 50 mM K acetate, 20 mM Tris-acetate pH 7.9, 10 mM Mg acetate, 1 mM DTT, 60 nM FAM-ssDNA, 60 min at room temperature; 5% native PAGE in 0.5x TBE; settings: protein: recombinant; copies: 1;1;1; label: 5'-FAM (fluorescein); single strand
[2] = target: T2, full-length human PrimPol (recombinant) (human, UniProt Q96LW4 1-560); assay: NMR titration; 15N-1H HSQC of 15N-enriched RPA domain (50 uM RPA70N) alone and with 2-fold molar excess (100 uM) of unlabelled PrimPol construct; 25°C; 20 mM HEPES, 80 mM NaCl, 2 mM DTT, 5% deuterium oxide, pH 7.1; settings: both partners purified
T2 construct: also called wild-type PrimPol
T2 sequence (looked up): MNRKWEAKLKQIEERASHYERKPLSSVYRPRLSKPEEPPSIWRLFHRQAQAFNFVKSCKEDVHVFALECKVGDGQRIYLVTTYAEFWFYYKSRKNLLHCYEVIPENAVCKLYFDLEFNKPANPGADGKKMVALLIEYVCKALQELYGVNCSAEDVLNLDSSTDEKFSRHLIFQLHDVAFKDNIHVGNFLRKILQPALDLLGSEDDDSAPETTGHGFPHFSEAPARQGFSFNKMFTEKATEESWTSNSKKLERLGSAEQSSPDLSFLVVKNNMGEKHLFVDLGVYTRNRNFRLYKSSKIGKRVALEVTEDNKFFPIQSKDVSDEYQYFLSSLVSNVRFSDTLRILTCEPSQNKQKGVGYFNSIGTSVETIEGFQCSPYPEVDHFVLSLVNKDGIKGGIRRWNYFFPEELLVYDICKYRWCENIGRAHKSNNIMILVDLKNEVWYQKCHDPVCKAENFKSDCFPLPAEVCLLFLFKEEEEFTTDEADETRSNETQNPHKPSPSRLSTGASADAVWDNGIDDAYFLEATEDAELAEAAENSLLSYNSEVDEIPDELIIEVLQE

Sequence of RPA (replication protein A) (P15927 whole entry, chain 2 of 2, the tested form may be a part): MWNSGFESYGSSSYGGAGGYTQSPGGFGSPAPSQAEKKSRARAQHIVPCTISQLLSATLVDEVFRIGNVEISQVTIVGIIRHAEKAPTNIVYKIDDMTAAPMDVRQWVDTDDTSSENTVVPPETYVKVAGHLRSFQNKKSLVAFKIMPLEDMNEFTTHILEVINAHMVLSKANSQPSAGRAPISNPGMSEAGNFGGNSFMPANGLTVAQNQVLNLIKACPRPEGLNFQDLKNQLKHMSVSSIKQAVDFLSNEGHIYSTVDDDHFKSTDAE
Sequence of RPA (replication protein A) (P35244 whole entry, chain 3 of 2, the tested form may be a part): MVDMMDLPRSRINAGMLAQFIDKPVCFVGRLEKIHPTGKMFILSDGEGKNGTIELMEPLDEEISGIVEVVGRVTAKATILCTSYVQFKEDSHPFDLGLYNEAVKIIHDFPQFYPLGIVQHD

Binder: CGCGCAGGGCGCACAACAGCCTTGAAGACCGAACGACCGAACAGACGACA (ssDNA) [ND-50 ssDNA Template (sequence 16)]
- binding result (mtSSB): binds
- binding result [1]: binds

- binding result [2]: binds
B1: RPA70N^1–120 (DBD-N of RPA1, N-terminal domain of RPA70) (domain or fragment, human, UniProt P27694 1-120, looked up)
chain: MVGQLSEGAIAAIMQKGDTNIKPILQVINIRPITTGNSPPRYRLLMSDGLNTLSSFMLATQLNPLVEEEQLSSNCVCQIHRFIVNTLKDGRRVVILMELEVLKSAEAVGVKIGNPVPYNE
modifications: 15N-enriched
notes: RPA70 (RPA1) residues 1-120, N-terminal protein recruitment domain

Reference: publication PMC4333378, “Human PrimPol is a highly error-prone polymerase regulated by single-stranded DNA binding proteins” (Nucleic Acids Research, 2014)
